Measured values reported in the DeepSol protein solubility set.

Assay: soluble on expression in E. coli; label from the status in PepcDB or PDB records

Sequence | soluble on expression in E. coli
MSLDKSLLKIVTNETGVATTTVEKVIALLDEGNTVPFIARYRKEVTGGLDEVKIKSIQDKWNYVVNLSERKQEVLRIIEEQGKLTKELENDIKAATQLQRVEDLYRPYKQKRRTRATIAKEKGLEPLALLVWSQEKDIDLQEEAKQYFSEEHELHTTEDVLQGINDIIAEWISDDAKYRDYIRDITFKRGLIQSEVKKQEDDEKGIYEMYYSYSEAVRSLVSHRILALNRGEKEKILKVQIEPPVEQITSYLEKQTIKNNSNEQITNSLKAAVEDSYKRLIQPSIEREIRNELTEKAEAQAIEVFSVNLKNLLLQPPLKGKVVLSVDPAFRTGCKLAVVDETGKVHHIGVIYPTAPKNDVKGAEKVVLQLIEQFSVELIAIGNGTASRETEQFISDVIRNKELDLPYIIVNEAGASVYSASPLAREEFPDLQVEERSAVSIARRVQDPLAELVKIDPKSIGVGQYQHDVSQKELSGSLSFVVETAVNQVGVNVNTASSSLLQYVSGLSKTVANNMVKQRNEEGKFTNRKQLKKIPRLGAKTYEQAIGFLRIPDGDTILDRTPIHPESYDQTKNLLQMLGYTENDIGSEKLQQDLNNIDKKATAEKLEIGLPTLEDIMEALGKPGRDPRDDFPQPLLKKNVMNMEDLKSGMELQGTVRNVVDFGVFVDIGVKQDGLVHISKMSKQFVKHPMDIASVGDVVTVWVDQVDVQKGRIALTMVGNDEGHHHHHH | soluble
MSLDLLFSECNDEIDNAKLIMKERRFTASYTFAKFSTGSMLLTKDIVGKSGVSIKRLPTELQRKFLFDDVYLDKEIEKVTIEARKSNPYPQISESSLLFKDALDYMEKTSSDYNLWKLSSILFDPVSYPYKTDNDQVKMALLKKERHCRLTSWIVSQIGPEIEEKIRNSSNEIEQIFLYLLLNDVVRASKLAIESKNGHLSVLISYLGSNDPRIRDLAELQLQKWSTGGCSIDKNISKIYKLLSGSPFEGLFSLKELESEFSWLCLLNLTLCYGQIDEYSLESLVQSHLDKFSLPYDDPIGVIFQLYAANENTEKLYKEVRQRTNALDVQFCWYLIQTLRFNGTRVFSKETSDEATFAFAAQLEFAQLHGHSLFVSCFLNDDKAAEDTIKRLVMREITLLRASTNDHILNRLKIPSQLIFNAQALKDRYEGNYLSEVQNLLLGSSYDLAEMAIVTSLGPRLLLSNNPVQNNELKTLREILNEFPDSERDKWSVSINVFEVYLKLVLDNVETQETIDSLISGMKIFYDQYKHCREVAACCNVMSQEIVSKILEKNEGHHHHHH | not soluble
MSLDQEQNVSLLVAGDHELLRDAISEILRREGGFSVEVTGSREGVLKQIEERGGFDVILLDLQMPGMSGLDSLREVATSNANGAVAILAGELTRDVVMSAFKAGARGYIPKTLPLRALPIALRLIASGESYVPAWLTNGGGTTQADGPSFDLLPEELQILEEVSDGRTNKQIAFTLNVTEGAIKMKMRAICMKLGAKNRTHAVVIARQHMMLREGHHHHHH | soluble
MSLDTIAVVLKQPQQVELSRLSLTAPTDDDIVVDVAWSGVSTGTERLLWSGRMPQFPGMGYPLVPGYESVGEVVEAGSATDLKPGQMVFVPGAKCFGEVRGLFGASASRLVVPAKRVVPLDSKLGERGILIALAATAYHAIAARGATPPDCIVGHGVLGRLLARISIALGNPPPVVWEKNPIRSGGAEGYAVVDPASDERRDYRSIYDVSGDPKLLDTLISRIAATGEIVLAGFYSEPLSFSFPPAFMREARIRVAAEWQPPDIGATKALIESGKLSLDGLITHHQEAASAPDAYRIAFEDPACLKMVLNWRPSEGHHHHHH | soluble
MSLDTYTTSEVADLIGVHPNTVRLYEELNLIPKPKRNTNGYRIFNDFHIEQFRFARTALKIEVVQRGLRKDALEIVRTSANRDFDKAISLVNQYLQQLEIEKSNAEEALTIVAQILNGNTPETNKLFLTRKETAEHLNVTIDTLRNWEMNGLLKVKRKQNGYRVYTDEDIKRLKIISALRCANYSLSAILRMLNALSSNPNTNIKTVLDTPKDDDEIISVCDKLITSLKEAEHNAKTMKSHLQIMKKQFSEGHHHHHH | soluble
MSLEAEGDEIYEDLMRSEPVSMPPKMTEYDKRCCCLREIQQTEEKYTDTLGSIQQHFLKPLQRFLKPQDIEIIFINIEDLLRVHTHFLKEMKEALGTPGAANLYQVFIKYKERFLVYGRYCSQVESASKHLDRVAAAREDVQMKLEECSQRANNGRFTLRDLLMVPMQRVLKYHLLLQELVKHTQEAMEKENLRLALDAMRDLAQCVNEVKRDEGHHHHHH | soluble
MSLEAIRIGEINSYSQIPAFTLPYRNGWQLAVEQINAAGGLLGGRPLEVISRDDGGDPGKAVTAAQELLTRHGVHALAGTFLSHVGLAVSDFARQRKVLFMASEPLTDALTWEKGNRYTYRLRPSTYMQAAMLAAEAAKLPITRWATIAPNYEYGQSAVARFKELLLAARPEVTFVAEQWPALYKLDAGPTVQALQQAEPEGLFNVLFGADLPKFVREGRVRGLFAGRQVVSMLTGEPEYLNPLKDEAPEGWIVTGYPWYDIDTAPHRAFVEAYRARWKEDPFVGSLVGYNTLTAMAVAFEKAGGTESETLVETLKDMAFSTPMGPLSFRASDHQSTMGAWVGRTALRDGKGVMVDWRYVDGGSVLPPPEVVSAWRPAGEGHHHHHH | soluble
MSLEDIWHKADELCEKNIKIVIRNLGLNLTISFQCYSHLLQNIPSMLGSIPFQRILSERKNKFDNAIVVSAGPSLTKQLPLLKAYQDKAVVFCADGALSMLEKEGVVPDYVLNIDFEDLPLRFFKNKQNKLSLNILSCATHPSLVHFLDNKSVILRDDPLYQSFNLNDFGYIDTGTHVSHFSYTLALALGFKNIIMIGQDLAFDEEGNSHSKGFDFGEKFEEEHKKYKLKTQAYGGKGEVLTHITWNDYRVKLEYLFACNDQKAKFYNATEGGARINFTEELSFKECCEKLLTKEKPKFELPKSLTKNRSDKLLAKFKEKIQKDQENAKRFLDDEGHHHHHH | soluble
MSLEENDDDMVGMVDLKIDLERVVRNAVDDAKEVCTQHYGDCPDVKFIISKDANTMRFPHMSSTITYIVVELMKNAFRATVESHMERNSAGMVDCSNMPPVEVLVNIKKNAKHACICVSDEGLGMTRAQCELAMTYAYTTVKRPVIQHGADEDPEEERNGVSPLAGYGFGLPMSRVYAQAFGGDLVMSTMEGYGTRVYYYIKEGHHHHHH | soluble
MSLEGHIVITGATGVIGSEVARRLIKSGREVVVFARSPQSAAAKVPGAADYVRWDSDMAPDGWSSSIDGAYAVIHLAGRPLLETRWTEEHKVACYDSRIKGTRALVAAMASASVKPKVFVSSSAIGYYGSFDRCEETDPLTEKAAPGKDFLAKICFDWEKEARPAETLGTRVVLLRTGIVLSTKGGMLQKMMIPFSYFVGGPVGSGDQCLSWIHLDDEVSIILQALDNADWSGPVNAVAPEPVSMKAFADSLGLVMHRPSLFPVPKLAVQILLGEGADYAVKGQKVSPEFLKERDFHFAWPSLNEALADLVSRGEGHHHHHH | soluble
MSLEGRSRLWPKTSAPGAFSRRSPERSWPSRRVQRHFPAKEGREAASAAALRASRRSMVGLTVAVRTGPCDLATRKTKSRWATGSDMTKSSKATSLEILACDAGWRNYHFVKLTTDDGIVGWSEFDEGFGSPGVGAAIQRLSTRIIGQNIFQHERIYAELFAATRPAAGGVVAQALGAIENAMLDAKAKCLGVPCYELLGGKIRDRVRVYWSHCATWRINHPSWYKPPIESLDGVKAMGREVREKKFTALKTNIFSYDDGKPTGWRPGFGSPFAPEINVDRKILRDLRMHLEAIRDGAGPDVDILLDCNFNAKTEGYLKILRTIADLDMFWIEIDSFNPEALGYIRRQSPHPISSCETLLGLREFLPYFHEQAMDVAIIDTPWNGVWQSMKIASAAEAFEVNVAPHNFYGHLCSMMNAHFCAAVPNLRIMEIDIDRLSWDRELFTHEPEIEDGHLIIPDRPGWGTEPNEEALRAHPPKTNGGLLNYGRKSEGHHHHHH | not soluble
MSLEISNRLKSISEVMDRCEIAADIGTDHAYLPIYLIKNNLCKRFIASDVNAGPLKKAINNINKYKLEDKIECRLGSGLNVLKLEEVDVVVIAGMGGNLIRDIIEERLDIFKKLKYAVLQPVQNPEILREYLIKRGFNIIEEQLCIDESKYYEIIKVCYDSKIEDKDDVYYEIGDKLIDMKHPLLKEYINYKIRKYDKIYKNISEESLNALSRKNELSIKIRKLKELLSCLEGHHHHHH | soluble
MSLEKLAASTEPQGPRPVLGRESVQVPDDQDFRSFRSECEAEVGWNLTYSRAGVSVWVQAVEMDRTLHKIKCRMECCDVPAETLYDVLHDIEYRKKWDSNVIETFDIARLTVNADVGYYSWRCPKPLKNRDVITLRSWLPMGADYIIMNYSVKHPKYPPRKDLVRAVSIQTGYLIQSTGPKSCVITYLAQVDPKGSLPKWVVNKSSQFLAPKAMKKMYKACLKYPEWKEGHHHHHH | not soluble
MSLELEAKLAQANEQIKELSKREERVRIARDLHDTLGHTLSLLTLKSQLIQRLAASDPERTKLEAKEMETSSRSALKQVRELVSDMRTVTITEELVNIQHILRAGNITFQYEGADDFSVISPVTQNIISMCMREAVTNIIKHSKATHCAITISQFADKMRIVIRDDGKGAPKEKMFGNGLWGMEERLMLIEGGLTVSDHNGTVVALTIPLIKKAEEGHHHHHH | soluble
MSLELTVFSIGDWGEKTECLVNVTTKMGSLESAMNPKFIISVGDNFYQRGVKSVEDAAWTEILEEPFGKLSKHLKVHSCLGDHDWRGSTTAQIDRTNYANNTRWYLPGYWWYEKVTFTSEVSLPSLFEKSGLGEISANNSFHFNSSKTENSTSCEIDCLDEIVDNLNTMVNRNNSWNEDLSYKTSISEYFSEKQVNSTAVFIYIDSWTLTQDPFKKTSISYKYSQLEFIEQTLKAAVFENVDWIILVTHYSIYSSGLHGPHTRLASILMPLIKKYRVDFIISGHDHHSEILVPEDFNSYFQIVGASSKPRTSFGATDENSIFKSNTCSFASFTFSKDIAVSRIFSINSSLFSYFKRSNKFEREGHHHHHH | not soluble
MSLENFRSNVRKPTMSLQIAVEKVRWLAAGLLELNGCDADIAQDVAEHMIEAERYGFASHGVTLLPKYLENIARGDVTANARPECLTSEGNLQRFHAHNGFGQHAGKVAVNAAIEQAKRRGFCLLTLCHAHHLGRMGHYGQMVADQGLAMLAMSNVTGRPALVAPWGGAEPRMTTNPFCFAWPFSDGRPPILVDFATSSMALNKARVMSSTGKQAAPGQLIDAQGNPSNDPGVLFSNPPGALLPFGEHKGFGLALMIEMMAGILSGGDTIAEDHQTDGSAHNHLFALIIDPDQFTDLAGEKGQFFADYLLATQPQPGGNPVIYPGMPEAANRERNAKMITIPVSFWSWVVEHYARKGIDLGLHPQESALAEGHHHHHH | soluble
MSLENHHEAKTKLGQLWKLGNHYLLCGDATKLSDVEKLLQGKKANLVVTDPPYNVAVKSDNKELNESGREKIMNDDMSDEEFDQFLMSVFQNYSNAMRDDSAIYVFHGSSYQREFENSMNAAGIVVRSQCIWVKNNATFGWSQYRWQHEPVFYAHKKKQAPSWYGDRKQTTIWQDDLLEDLPATIWKVPRDDVATYYHPTQKPLSLIAIPVRNSSKRQDIVLDLFGGSGSTLMTCEQLNRICYTLELDPLFCDVIIERFEKSTGIIAELVEGHHHHHH | soluble
MSLEPKYQRILIKLSGEALAGEKGVGIDIPTVQAIAKEIAEVHVSGVQIALVIGGGNLWRGEPAADAGMDRVQADYTGMLGTVMNALVMADSLQHYGVDTRVQTAIPMQNVAEPYIRGRALRHLEKNRIVVFGAGIGSPYFSTDTTAALRAAEIEADAILMAKNGVDGVYNADPKKDANAVKFDELTHGEVIKRGLKIMDATASTLSMDNDIDLVVFNMNEAGNIQRVVFGEHIGTTVSNKVCDEGHHHHHH | soluble
